Positions count from the first letter of the chain named.
B1: 75110_01A06A (antibody, V domains shown)
VH: EVQLVESGGGLVQPGGSLRLSCAASGFTFSSYWMSWVRQAPGKGLEWVANINEDGNEKYYVDSVKGRLTISRDNAKNSLYLQMNSLRAEDTAVYFCAREGGQWLSLDYWGQGALVTVSS
VL: DIQMTQSPSSVSASVGDRVSITCRASQGISSWLAWYQQKPGKAPKILIYGASSLQSGVPSRFSGSGSGTDFTLTISSLQPEDFATYYCQQANSFPWTFGQGTKVEIK
notes: Tested as antibody purified from AlivaMab Mouse hybridoma supernatant (captured by anti-mouse IgG Fc)
B2: 75110_01H18A (antibody, V domains shown)
VH: QVQLQQWGAGLLKPSETLSLTCAVYGGSFSGYYWSWIRQSPGKGLEWIGEINQSGSTNYNPSLKSRVTISVDTSKNQFSLKLSSVTAADTAVYYCARVINWFDSWGQGTLVTVSS
VL: B1 VL with S20T, I46L, G50A, L54F, P80T, W96Y, K103R, V104L
notes: as for B1
B3: 75110_03D16A (antibody, V domains shown)
VH: B1 VH with E53Q, N56G, L68F, F95Y, A97V, S105A, A113T
VL: B1 VL with S20T, A34T, I46F, G50A, S67F
notes: as for B1
B4: 75110_04K10A (antibody, V domains shown)
VH: B1 VH with E53Q, N56S, L68F, M83L, V93M, F95Y, A113T
VL: B1 VL with S20T, I46V, A51V, L54F, T72I
notes: as for B1
B5: 75110_02N15A (antibody, V domains shown)
VH: B1 VH with L68F, Y80F, S105A, Y108H
VL: B1 VL with S20T, I46F, Y49S, I106F
notes: as for B1
B6: 75110_04F22A (antibody, V domains shown)
VH: EVQLVESGGGLVQPGGSLRLSCAASGFTFSSYDIHWVRQATGKGLEWVSTIGTAGDTYYPGSVKGRFTISRENAKNSLYLQMNSLRAGDTAVYYCARGGYYYYGMDVWGQGTTVTVSS
VL: EIVLTQSPGTLSLSPGERATLSCRASQSVYSSYLAWYQQKPGQAPRLLIYGASSRATGIPDRFSGSGSGTDFTLTISRLEPEDFAVYYCQQFGTSPFTFGPGTKVDIK
notes: as for B1
B7: 75110_01E08A (antibody, V domains shown)
VH: B6 VH with S30N, S31N, I34M, G61A, S70Y, Y100D
VL: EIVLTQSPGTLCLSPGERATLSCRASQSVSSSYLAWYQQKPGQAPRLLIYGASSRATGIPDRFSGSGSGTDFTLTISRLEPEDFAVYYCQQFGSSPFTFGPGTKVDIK
notes: as for B1
B8: 75110_01J17A (antibody, V domains shown)
VH: B6 VH with I34M, A40G, G55D, K75E, Y100D
VL: B6 VL with T5A, S31I, S77T, T94S, I107F
notes: as for B1
B9: 75110_01N04A (antibody, V domains shown)
VH: B6 VH with S31N, I34M, Y100D, Y101F, M105L
VL: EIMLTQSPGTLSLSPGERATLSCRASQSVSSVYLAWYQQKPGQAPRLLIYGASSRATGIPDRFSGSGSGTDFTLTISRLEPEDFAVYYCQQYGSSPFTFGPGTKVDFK
notes: as for B1
B10: 75110_01G11A (antibody, V domains shown)
VH: B6 VH with I34M, K75R, Y79F, Y100D
VL: B6 VL with S14F, S28N, V29T, S54N, F92H
notes: as for B1
B11: 75110_01D24A (antibody, V domains shown)
VH: B2 VH with S40P, Q53H, K75E, S83N, V98L, I99V, S104P
VL: EIQMTQSPSSVSASVGDRVTITCRASQDISNWLAWYQQKPGKAPNLLIFAASSLQTGVPSRFSGSGSGTDFTLTISSLQPDDFATYYCQQANSFPYSFGQGTNLGIK
notes: as for B1
B12: 75110_03L12A (antibody, V domains shown)
VH: B2 VH with S40P, Q53H, K75E, K81T, S83I, A96V, V98L, S104P
VL: B11 VL with E1D, N45K, T56S, S97T
notes: as for B1
B13: 75110_07N04A (antibody, V domains shown)
VH: QVQLQESGPGLVKPSETLSLTCSVSGVSSTSFYWSWIRQPAGKGLDWIGRIYTSGSTNYNPSLKSRVTMSVDTSKNQFSLKLSSVTAADTAVYYCARDPGYSDAFAIWGQGTMVTVSS
VL: not shown
notes: Tested as antibody purified from AlivaMab Mouse hybridoma supernatant (human variable domains, kappa; mouse Fc, captured on anti-mouse IgG Fc sensors); also called ADS75110 purified AMM Ab
B14: 75110_08F20A (antibody, V domains shown)
VH: QVQLQESGPGLVKPSETLSLTCSVSGGSISTYYWSWIRQPAGKGLEWIGRICTTENTNYNPSLKSRVTMSIDSSKNQFSLKLSSVTAADTAVYYCARDLERLNYYGMDVWGQGATVTVSS
VL: DIQMTQSPSSLSASVGDRVTITCQASQDISKYLNWYQQKPGIAPKLLIYDASNLETGVPSRFSGSGSGTDFTFTISSLQPEDFATYYCQQYDSLPITFGQGTRLEIK
notes: as for B13
B15: 75110_14N19A (antibody, V domains shown)
VH: B14 VH with S23T, T31R, T54S, T57P, S62A, I71V, S73T, D98E, A114T
VL: B14 VL with S7F, K31N, I42K, T56S, S65R, Y86F, S93T
notes: as for B13
B16: 75110_08G08A (antibody, V domains shown)
VH: B14 VH
VL: B14 VL with K31N, F83I
notes: as for B13
B17: 75110_12H19A (antibody, V domains shown)
VH: B1 VH with K43Q, Y60H, A88G, E89V, S105A
VL: B1 VL with I46L, S53G
notes: as for B13
B18: 75110_07J02A (antibody, V domains shown)
VH: EVQLVESGGGLVQPGGSLRLSCAASGFTFSSYWMSWVRQAPGKGLEWVANIKEDGSEKYYVDSVKGRFTISRDNAKNSLYLQMNSLRAEDTAVYYCARDGSYSGYGMDVWGQGTTVTVSS
VL: AIQMTQSPSSLSASVGDRVTITCRASQGIRNDLGWYQQKPGKAPKLLIYAASSLQSGVPSRFSGRGSGTDFALTISSLQPEDFATYYCLLDYNYPYTFGQGTRLEIK
notes: as for B13
B19: 75110_08A13A (antibody, V domains shown)
VH: B18 VH with T28I, E53Q, V61M, G100N, S103Y, G104Y
VL: B18 VL with N31D, Y49F, R61S, R65S, A72T, L90H, D91H, R103K
notes: as for B13
B20: 75110_10K21A (antibody, V domains shown)
VH: EVQLVESGGGLVQPGGSLRLSCAASGFTFSSYWMTWVRQAPGKGLEWVANIKQDGSEKYYVDSVKGRFTISRDNAKNSLYLQMNSLRAEDTAVYYCVRDRYDALDIWGQGTMVTVSS
VL: B18 VL with G34N, R65S, A72T, P80A, L90K, R103K
notes: as for B13
B21: 75110_14I16A (antibody, V domains shown)
VH: QVQLQESGPGLVKPSETLSLTCTVSNGSISSYYWSWIRQSAGKGLEWIGRIYTSGSTNYNPSLKSRVTMLVDTSKNQFSLKLSSVTAADTAVYYCARDREDYYYYGMDVWGQGTTVTVSS
VL: DIQMTQSPSSLSASVGDRVTITCQASHDISNYLNWYQQKPGKAPKLLLYYASNLETGVPSRFSGSGSGTDFTFTITSLQPEDIGTYSCQQYDNLPLTFGGGTKVEIK
notes: as for B13
B22: 75110_12K21A (antibody, V domains shown)
VH: B2 VH with Y25S, S40P, Q53H, Y59C, K75N, I99L, W101Y, S104Y
VL: DIQMTQSPSSVSASVGDRVTITCRASPDIANWLAWYQQKPGKAPELLIYAASSLQSGVPSRFSGSGSGTDFTLTISSLQPEDFATYFCQQANSFPLTFGGGTKVESK
notes: as for B13
B23: 75110_13P21A (antibody, V domains shown)
VH: B2 VH with Y25S, S40P, Q53H, Y59C, K75N, I99L, W101Y, S104Y
VL: B22 VL
notes: as for B13
B24: 75110_13C13A (antibody, V domains shown)
VH: B2 VH with Y25S, S40P, Q53H, Y59C, V92M, I99L, W101F, S104Y
VL: B22 VL with S7T, D28G, A30S
notes: as for B13

Each binder was assayed against T1, Rhesus macaque CD4-HIS (Acro Biosystems, Cat. CD4-C52H7) (rhesus macaque, UniProt P16003 26-390) (assay: BLI Octet, mAb on anti-mouse Fc sensor, rhesus CD4-HIS 25-100 nM, 1:1 global fit;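 further: purified antibodies captured at 10 µg/mL, rhesus CD4 analyte run as a three-concentration serial dilution, irrelevant antibody as reference control, one kinetic constant set per antibody from global fitting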).
T1 construct: Bought reagent; also called Rhesus CD4; rhesus CD4-HIS; not shown: His tag

Kd [nM] | Response | koff [s⁻¹] | kon [M⁻¹ s⁻¹] | Binder
7.8 | 0.39 | 0.001 | 130000 | B1
130 | 0.11 | 0.017 | 130000 | B2
12 | 0.1 | 0.002 | 160000 | B3
48 | 0.17 | 0.0032 | 67000 | B4
14 | 0.29 | 0.0026 | 190000 | B5
7.2 | 0.04 | 0.0011 | 150000 | B6
0.98 | 0.1 | 0.00014 | 140000 | B7
22 | 0.05 | 0.0017 | 79000 | B8
0.035 | 0.02 | 0.0061 | 1.7e+08 | B9
64 | 0.03 | 0.0018 | 28000 | B10
340 | 0.08 | 0.064 | 190000 | B11
72 | 0.08 | 0.016 | 220000 | B12

What follows are binders tested against T2, Rhesus macaque CD4-HIS (Acro Biosystems, Cat. CD4-C52H7) (rhesus macaque, UniProt P16003 26-390) (assay: BLI (Octet Red384); Ab on anti-mouse Fc (AMC) sensor; rhesus CD4-HIS 100/50/25 nM; global 1:1 fit;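 further: antibodies loaded at 10 µg/mL, an unrelated mouse-derived antibody served as internal reference, curves fit over association and dissociation phases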).
T2 construct: Bought reagent; also called Rhesus CD4; rhesus CD4-HIS; not shown: His tag

Kd [nM] | Response | koff [s⁻¹] | kon [M⁻¹ s⁻¹] | Binder
< 0.001 | 0.03 | < 1e-07 | 13000 | B13
11 | 0.22 | 0.0026 | 230000 | B14
14 | 0.17 | 0.0021 | 150000 | B15
19 | 0.15 | 0.0041 | 220000 | B16
14 | 0.28 | 0.0026 | 190000 | B17
18 | 0.14 | 0.0028 | 150000 | B18
5.1 | 0.15 | 0.00098 | 190000 | B19
2.1 | 0.23 | 0.00033 | 160000 | B20
14 | 0.13 | 0.0027 | 190000 | B21
21 | 0.16 | 0.0056 | 270000 | B22
75 | 0.11 | 0.013 | 170000 | B23
8.3 | 0.09 | 0.0046 | 550000 | B24
